The values that follow come from IntAct's records for PubMed 29892012.

B1: Coiled-coil alpha-helical rod protein 1 (Homo sapiens), Q8TD31 (parent)
chain: MFPPSGSTGLIPPSHFQARPLSTLPRMAPTWLSDIPLVQPPGHQDVSERRLDTQRPQVTMWERDVSSDRQEPGRRGRSWGLEGSQALSQQAEVIVRQLQELRRLEEEVRLLRETSLQQKMRLEAQAMELEALARAEKAGRAEAEGLRAALAGAEVVRKNLEEGSQRELEEVQRLHQEQLSSLTQAHEEALSSLTSKAEGLEKSLSSLETRRAGEAKELAEAQREAELLRKQLSKTQEDLEAQVTLVENLRKYVGEQVPSEVHSQTWELERQKLLETMQHLQEDRDSLHATAELLQVRVQSLTHILALQEEELTRKVQPSDSLEPEFTRKCQSLLNRWREKVFALMVQLKAQELEHSDSVKQLKGQVASLQEKVTSQSQEQAILQRSLQDKAAEVEVERMGAKGLQLELSRAQEARRRWQQQTASAEEQLRLVVNAVSSSQIWLETTMAKVEGAAAQLPSLNNRLSYAVRKVHTIRGLIARKLALAQLRQESCPLPPPVTDVSLELQQLREERNRLDAELQLSARLIQQEVGRAREQGEAERQQLSKVAQQLEQELQQTQESLASLGLQLEVARQGQQESTEEAASLRQELTQQQELYGQALQEKVAEVETRLREQLSDTERRLNEARREHAKAVVSLRQIQRRAAQEKERSQELRRLQEEARKEEGQRLARRLQELERDKNLMLATLQQEGLLSRYKQQRLLTVLPSLLDKKKSVVSSPRPPECSASAPVAAAVPTRESIKGSLSVLLDDLQDLSEAISKEEAVCQGDNLDRCSSSNPQMSS
partner: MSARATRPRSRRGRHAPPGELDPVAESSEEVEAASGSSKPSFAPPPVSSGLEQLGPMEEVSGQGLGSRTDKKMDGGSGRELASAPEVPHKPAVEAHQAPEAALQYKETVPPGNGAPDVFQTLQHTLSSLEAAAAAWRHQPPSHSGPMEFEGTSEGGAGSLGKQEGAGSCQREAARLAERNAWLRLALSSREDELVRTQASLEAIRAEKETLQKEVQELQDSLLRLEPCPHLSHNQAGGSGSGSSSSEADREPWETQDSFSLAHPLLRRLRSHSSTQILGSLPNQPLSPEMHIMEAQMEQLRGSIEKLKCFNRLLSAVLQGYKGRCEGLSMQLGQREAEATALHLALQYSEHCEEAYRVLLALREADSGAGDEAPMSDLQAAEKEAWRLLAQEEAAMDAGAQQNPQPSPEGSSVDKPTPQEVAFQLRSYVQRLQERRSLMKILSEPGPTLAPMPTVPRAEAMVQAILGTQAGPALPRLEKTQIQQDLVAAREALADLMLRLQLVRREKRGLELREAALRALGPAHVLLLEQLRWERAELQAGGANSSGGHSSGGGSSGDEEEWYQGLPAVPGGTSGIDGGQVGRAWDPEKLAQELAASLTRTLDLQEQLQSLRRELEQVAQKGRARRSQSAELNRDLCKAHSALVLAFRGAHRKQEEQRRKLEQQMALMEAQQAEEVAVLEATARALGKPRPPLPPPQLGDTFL
B2: TBC1 domain family member 22B (Homo sapiens), Q9NU19 (parent)
chain: MAAENSKQFWKRSAKLPGSIQPVYGAQHPPLDPRLTKNFIKERSKVNTVPLKNKKASSFHEFARNTSDAWDIGDDEEEDFSSPSFQTLNSKVALATAAQVLENHSKLRVKPERSQSTTSDVPANYKVIKSSSDAQLSRNSSDTCLRNPLHKQQSLPLRPIIPLVARISDQNASGAPPMTVREKTRLEKFRQLLSSQNTDLDELRKCSWPGVPREVRPITWRLLSGYLPANTERRKLTLQRKREEYFGFIEQYYDSRNEEHHQDTYRQIHIDIPRTNPLIPLFQQPLVQEIFERILFIWAIRHPASGYVQGINDLVTPFFVVFLSEYVEEDVENFDVTNLSQDMLRSIEADSFWCMSKLLDGIQDNYTFAQPGIQKKVKALEELVSRIDEQVHNHFRRYEVEYLQFAFRWMNNLLMRELPLRCTIRLWDTYQSEPEGFSHFHLYVCAAFLIKWRKEILDEEDFQGLLMLLQNLPTIHWGNEEIGLLLAEAYRLKYMFADAPNHYRR
partner: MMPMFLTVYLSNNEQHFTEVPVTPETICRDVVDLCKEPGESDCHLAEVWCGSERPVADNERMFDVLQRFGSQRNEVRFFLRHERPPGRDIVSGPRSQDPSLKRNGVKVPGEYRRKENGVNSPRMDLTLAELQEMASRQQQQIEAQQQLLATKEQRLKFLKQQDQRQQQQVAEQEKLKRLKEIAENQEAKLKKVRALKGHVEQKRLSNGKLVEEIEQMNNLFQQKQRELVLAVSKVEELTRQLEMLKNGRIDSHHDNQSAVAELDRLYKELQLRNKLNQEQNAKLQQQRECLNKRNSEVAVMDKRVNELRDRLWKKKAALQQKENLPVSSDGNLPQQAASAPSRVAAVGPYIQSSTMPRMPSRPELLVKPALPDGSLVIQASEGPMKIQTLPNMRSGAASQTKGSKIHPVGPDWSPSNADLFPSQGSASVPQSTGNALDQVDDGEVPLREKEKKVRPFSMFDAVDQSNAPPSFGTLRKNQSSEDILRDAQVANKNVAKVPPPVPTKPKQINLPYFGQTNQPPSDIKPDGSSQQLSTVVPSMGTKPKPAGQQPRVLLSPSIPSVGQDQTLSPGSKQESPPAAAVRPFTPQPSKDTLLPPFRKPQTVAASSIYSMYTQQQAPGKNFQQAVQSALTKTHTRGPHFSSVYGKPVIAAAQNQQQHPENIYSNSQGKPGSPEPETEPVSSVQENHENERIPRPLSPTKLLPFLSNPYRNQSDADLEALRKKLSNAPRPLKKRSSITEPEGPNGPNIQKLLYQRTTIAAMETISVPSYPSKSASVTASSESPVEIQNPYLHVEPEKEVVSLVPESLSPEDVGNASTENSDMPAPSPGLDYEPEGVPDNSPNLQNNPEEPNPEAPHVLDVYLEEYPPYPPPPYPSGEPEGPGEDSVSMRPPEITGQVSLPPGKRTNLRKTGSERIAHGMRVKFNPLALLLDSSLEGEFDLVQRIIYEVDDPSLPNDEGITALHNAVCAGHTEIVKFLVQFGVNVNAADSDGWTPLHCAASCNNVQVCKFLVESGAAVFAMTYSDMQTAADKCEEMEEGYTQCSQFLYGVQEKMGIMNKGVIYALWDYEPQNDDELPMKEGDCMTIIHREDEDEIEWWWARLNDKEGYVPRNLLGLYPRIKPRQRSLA
B3: Coiled-coil alpha-helical rod protein 1 (Homo sapiens), Q8TD31 (parent)
chain: B1 chain
partner: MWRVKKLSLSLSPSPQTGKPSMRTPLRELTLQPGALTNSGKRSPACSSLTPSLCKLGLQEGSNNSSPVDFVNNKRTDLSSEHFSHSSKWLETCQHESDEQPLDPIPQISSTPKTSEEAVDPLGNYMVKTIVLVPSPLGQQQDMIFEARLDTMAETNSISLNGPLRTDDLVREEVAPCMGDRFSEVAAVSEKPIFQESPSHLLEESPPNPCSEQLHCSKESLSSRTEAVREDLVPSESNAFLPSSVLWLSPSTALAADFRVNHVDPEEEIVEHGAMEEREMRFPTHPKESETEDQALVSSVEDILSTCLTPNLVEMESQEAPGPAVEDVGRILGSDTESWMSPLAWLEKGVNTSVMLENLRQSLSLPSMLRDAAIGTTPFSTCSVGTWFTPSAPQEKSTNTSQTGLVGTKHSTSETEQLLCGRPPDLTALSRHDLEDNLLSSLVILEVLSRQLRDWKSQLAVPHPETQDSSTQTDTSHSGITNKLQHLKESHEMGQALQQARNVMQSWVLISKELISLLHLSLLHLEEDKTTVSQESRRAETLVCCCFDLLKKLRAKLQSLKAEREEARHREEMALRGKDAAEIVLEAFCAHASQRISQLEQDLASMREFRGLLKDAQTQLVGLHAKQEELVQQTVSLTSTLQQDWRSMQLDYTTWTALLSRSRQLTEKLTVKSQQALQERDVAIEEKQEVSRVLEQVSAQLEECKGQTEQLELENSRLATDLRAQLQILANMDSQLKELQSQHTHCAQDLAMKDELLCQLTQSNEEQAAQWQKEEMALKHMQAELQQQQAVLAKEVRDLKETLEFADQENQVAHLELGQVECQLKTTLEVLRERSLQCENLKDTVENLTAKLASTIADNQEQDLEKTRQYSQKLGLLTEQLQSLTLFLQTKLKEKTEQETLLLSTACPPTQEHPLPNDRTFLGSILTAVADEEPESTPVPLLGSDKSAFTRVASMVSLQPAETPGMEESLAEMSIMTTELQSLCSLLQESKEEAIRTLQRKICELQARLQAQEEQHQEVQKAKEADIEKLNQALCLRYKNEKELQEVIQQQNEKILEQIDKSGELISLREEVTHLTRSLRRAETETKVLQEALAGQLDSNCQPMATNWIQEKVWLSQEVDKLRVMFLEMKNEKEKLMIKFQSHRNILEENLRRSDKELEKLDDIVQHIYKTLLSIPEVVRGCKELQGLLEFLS
B4: TBC1 domain family member 22B (Homo sapiens), Q9NU19 (parent)
chain: B2 chain
partner: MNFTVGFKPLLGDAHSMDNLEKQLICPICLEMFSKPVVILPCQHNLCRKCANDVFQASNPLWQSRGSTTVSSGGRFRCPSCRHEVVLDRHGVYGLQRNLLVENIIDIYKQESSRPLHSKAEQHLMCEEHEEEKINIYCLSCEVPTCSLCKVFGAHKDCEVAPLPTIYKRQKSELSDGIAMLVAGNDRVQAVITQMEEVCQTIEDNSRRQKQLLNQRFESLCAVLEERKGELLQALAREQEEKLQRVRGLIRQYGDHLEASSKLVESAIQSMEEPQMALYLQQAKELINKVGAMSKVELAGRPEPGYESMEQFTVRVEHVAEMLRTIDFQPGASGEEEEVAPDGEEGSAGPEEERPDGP

The first test covers variants of B1. As to conditions: with usbp1_human USHBP1, Q8N6Y0.
With W337R, the “effect of a mutation on the interaction” value was “disrupting interaction strength”.

In another test the parent is B2. Conditions: with aspp2_human TP53BP2, Q13625.
Consider MAAENSKQFWKRSAKLPGSIQPVYGAQHPPLDPRLTKNFIKERSKVNTVPLKNKKASSFHEFARNTSDAWDIGDDEEEDFSSPSFQTLNSKVALATAAQVLENHSKLRVKPERSQSTTSDVPANYKVIKSSSDAQLSRNSSDTCLRNPLHKQQSLPLRPIIPLVARISDQNASGAPPMTVREKTRLEKFRQLLSSQNTDLDELRKCSWPGVPREVRPITWRLLSGYLPANTERRKLTLQRKREEYFGFIEQYYDSRNEEHHQDTYRQIHIDIPRTNPLIPLFQQPLVQEIFERILFIWAIRHPASGYVQGINDLVTPFFVVFLSEYVEEDVENFDVTNLSQDMLRSIETDSFWCMSKLLDGIQDNYTFAQPGIQKKVKALEELVSRIDEQVHNHFRRYEVEYLQFAFRWMNNLLMRELPLRCTIRLWDTYQSEPEGFSHFHLYVCAAFLIKWRKEILDEEDFQGLLMLLQNLPTIHWGNEEIGLLLAEAYRLKYMFADAPNHYRR [A349T], for which the “effect of a mutation on the interaction” value was “disrupting interaction strength”.

Variants of B3 are the subject of another test. As to conditions: with spag5_human SPAG5, Q96R06.
For the variant W337R, the “effect of a mutation on the interaction” value was “disrupting interaction strength”.

In a further test the parent is B4. As to conditions: with tri54_human TRIM54, Q9BYV2.
As to MAAENSKQFWKRSAKLPGSIQPVYGAQHPPLDPRLTKNFIKERSKVNTVPLKNKKASSFHEFARNTSDAWDIGDDEEEDFSSPSFQTLNSKVALATAAQVLENHSKLRVKPERSQSTTSDVPANYKVIKSSSDAQLSRNSSDTCLRNPLHKQQSLPLRPIIPLVARISDQNASGAPPMTVREKTRLEKFRQLLSSQNTDLDELRKCSWPGVPREVRPITWRLLSGYLPANTERRKLTLQRKREEYFGFIEQYYDSRNEEHHQDTYRQIHIDIPRTNPLIPLFQQPLVQEIFERILFIWAIRHPASGYVQGINDLVTPFFVVFLSEYVEEDVENFDVTNLSQDMLRSIETDSFWCMSKLLDGIQDNYTFAQPGIQKKVKALEELVSRIDEQVHNHFRRYEVEYLQFAFRWMNNLLMRELPLRCTIRLWDTYQSEPEGFSHFHLYVCAAFLIKWRKEILDEEDFQGLLMLLQNLPTIHWGNEEIGLLLAEAYRLKYMFADAPNHYRR [A349T], the “effect of a mutation on the interaction” value is recorded as “disrupting interaction strength”.
